The source of these data is US5756343, “Cell stress transcriptional factors” (The United States of America as represented by the …, dated 1992).

Data set [1] addresses T1, Drosophila HSF expressed in Xenopus oocytes (Drosophila melanogaster) (UniProt P22813).
T1 sequence: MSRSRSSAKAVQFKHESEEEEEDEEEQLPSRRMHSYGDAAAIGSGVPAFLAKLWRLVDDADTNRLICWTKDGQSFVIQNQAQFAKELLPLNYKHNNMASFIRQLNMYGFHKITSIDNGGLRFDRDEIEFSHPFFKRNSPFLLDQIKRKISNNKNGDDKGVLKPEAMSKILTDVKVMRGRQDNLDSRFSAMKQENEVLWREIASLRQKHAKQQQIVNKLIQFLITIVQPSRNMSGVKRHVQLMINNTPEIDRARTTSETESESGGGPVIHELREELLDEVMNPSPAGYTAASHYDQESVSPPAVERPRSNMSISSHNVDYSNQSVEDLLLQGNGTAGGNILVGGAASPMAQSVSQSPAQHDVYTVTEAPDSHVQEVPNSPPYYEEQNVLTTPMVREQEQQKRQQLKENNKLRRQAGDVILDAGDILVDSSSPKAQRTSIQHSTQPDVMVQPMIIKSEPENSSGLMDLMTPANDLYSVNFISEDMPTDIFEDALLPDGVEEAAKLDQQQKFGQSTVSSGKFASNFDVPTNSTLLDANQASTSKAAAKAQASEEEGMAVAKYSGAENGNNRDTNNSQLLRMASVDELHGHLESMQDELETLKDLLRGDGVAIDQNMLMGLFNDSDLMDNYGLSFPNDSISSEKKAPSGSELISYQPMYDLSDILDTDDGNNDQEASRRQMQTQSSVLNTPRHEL
Kind of data set: EMSA. The following applies: oocytes 36 C 10 min vs 18 C.

For data set [2], the target named is T2, Drosophila HSF full length (pHSF WT) (Drosophila melanogaster) (UniProt P22813).
T2 sequence: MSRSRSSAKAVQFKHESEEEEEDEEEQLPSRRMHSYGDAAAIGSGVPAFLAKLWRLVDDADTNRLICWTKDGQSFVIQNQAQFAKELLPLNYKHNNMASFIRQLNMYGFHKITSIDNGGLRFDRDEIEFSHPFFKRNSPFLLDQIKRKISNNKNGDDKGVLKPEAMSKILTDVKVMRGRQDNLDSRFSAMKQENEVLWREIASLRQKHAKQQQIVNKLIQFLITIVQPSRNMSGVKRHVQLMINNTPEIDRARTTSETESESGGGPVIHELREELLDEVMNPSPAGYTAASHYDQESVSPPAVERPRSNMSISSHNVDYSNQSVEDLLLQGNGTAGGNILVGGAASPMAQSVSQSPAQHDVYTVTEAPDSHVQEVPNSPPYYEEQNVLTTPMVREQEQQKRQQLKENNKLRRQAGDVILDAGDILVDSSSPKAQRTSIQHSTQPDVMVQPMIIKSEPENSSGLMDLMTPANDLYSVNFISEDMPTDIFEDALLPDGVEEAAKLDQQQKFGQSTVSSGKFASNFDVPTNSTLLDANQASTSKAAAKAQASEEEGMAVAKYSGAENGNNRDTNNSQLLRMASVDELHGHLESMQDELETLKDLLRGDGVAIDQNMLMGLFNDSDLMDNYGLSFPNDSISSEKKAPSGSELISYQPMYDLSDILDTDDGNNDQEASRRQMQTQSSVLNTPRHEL
The following applies: in vitro transcription, Drosophila embryo extract; scale: fold transcription vs template lacking HSEs.

Data set [3] deals with human HSF (HuHSF) (Homo sapiens) (UniProt Q00613). The following applies: in vitro transcription, Drosophila embryo extract.
Data set [4] concerns the molecule itself. Briefly: self-association: pore exclusion limit electrophoresis on a nondenaturing gradient gel, purified HSF from E. coli. On the procedure:
The gel was stained with Coomassie Blue. […] (B) Pore exclusion limit analysis of the HSF:^32P-HSE complex. 3 µl of Drosophila SL-2 cell cytosol (lanes 1,2) and 0.5 µl of an extract *E. coli* expressing HSF (lanes 3,4) were heat shocked (+) in vitro at 34° C. or incubated at 0° C. (−) for 10 min. The samples were incubated for 10 min with ^32P-labeled HSE tinder standard gel shift conditions, and electrophoresed on a nondenaturing, 3–12% polyacrylamide gradient gel until the limit of migration. The gel was stained with Coomassie Blue, dried and subjected to autoradiography. The positions of marker proteins are indicated. (C) Glutaraldehyde cross-linking of cloned HSF. Purified HSF (2 µg/10 µl) was treated for 5 min at room temperature with glutaraldehyde as indicated. After quenching, about 1 µg of cross-linked HSF was separated on a 4–6% SDS polyacrylamide gel, and silver stained. The minor polypeptides below the 105 kD HSF protein probably represent degradation products. […] Cross-linked products were analyzed by SDS gel electrophoresis as above.
EXAMPLE 5 Recombinant Drosophila HSF Expressed in *E. coli*. Associates as a Hexamer in Solution The apparent molecular mass of recombinant HSF, purified from *E. coli* extracts, was determined to be about 105 KD by SDS polyacrylamide gel electrophoresis (see FIG. 6).

Data set [5] addresses T3, Drosophila HSF 1-163 (Drosophila melanogaster, UniProt P22813 SEQ:1-163).
T3 chain: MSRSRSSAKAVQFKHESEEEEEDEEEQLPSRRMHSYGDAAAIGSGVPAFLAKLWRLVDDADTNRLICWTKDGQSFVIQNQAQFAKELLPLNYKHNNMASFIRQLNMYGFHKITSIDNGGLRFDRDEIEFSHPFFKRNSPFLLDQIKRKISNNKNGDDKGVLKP
Kind of data set: footprint; estimated from protein concentration for about 50% binding. The conditions noted are these: tags: E. coli BL21(DE3) extract; label: 32P 5' end. The procedure: (§1) All numbers refer to amino acid positions. The open bars represent HSF coding sequences; the shaded regions A–D represent sequences conserved between Drosophila and yeast HSF. The solid boxes indicate the φ10 promoter (T_7), the Shine-Delgarno (SD) sequence, and the transcription terminator (T) of the expression vector. (B) SDS polyacrylamide gel analysis of wild-type and mutant HSF polypeptides. Mutants were expressed in BL21 (DE3) in the presence of ^35S-methionine (20 µCi/ml). 0.1 ml of culture was precipitated and the pellet was denatured at 100° C. in 10 µl of Laemmli sample buffer. Samples were electrophoresed on a 15% polyacrylamide gel and visualized by fluorography. The arrows pointing left indicate HSF polypeptides. A 26 kD protein (arrowhead) was also labeled in all samples, including *E. coli* transformed with the expression vector alone. (C) DNase I protection analysis of HSF mutants. A labeled fragment from the hsp70 promoter was incubated with the indicated amounts of wild-type or mutant HSF proteins. Footprinting reactions were performed essentially as described in FIG. 3C. Figure 7B: Figure 7C: […]

Data set [6] addresses T4, Drosophila HSF 1-241 (Drosophila melanogaster, UniProt P22813 SEQ:1-241).
T4 chain: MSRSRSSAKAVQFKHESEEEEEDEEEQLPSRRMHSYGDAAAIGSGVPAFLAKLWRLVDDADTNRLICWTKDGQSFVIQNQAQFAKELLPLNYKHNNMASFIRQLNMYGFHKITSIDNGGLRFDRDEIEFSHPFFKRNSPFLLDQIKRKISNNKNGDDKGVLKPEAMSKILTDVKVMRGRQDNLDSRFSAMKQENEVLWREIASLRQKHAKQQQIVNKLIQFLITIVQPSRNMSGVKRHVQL
Briefly: footprint. The following applies: tags: E. coli BL21(DE3) extract; label: 32P 5' end.
Source text: as §1, with “Figure 7A: FIGS. 7A, 7B, and 7C represent the deletion analysis of HSF. (A) Schematic drawing of full-length HSF open reading frame (pHSF WT) and three deletion mutants PHSF 1-367, 1-241, and 1-163. All” for “All”

In data set [7] the target is T5, Drosophila HSF 1-367 (Drosophila melanogaster, UniProt P22813 SEQ:1-367).
T5 chain: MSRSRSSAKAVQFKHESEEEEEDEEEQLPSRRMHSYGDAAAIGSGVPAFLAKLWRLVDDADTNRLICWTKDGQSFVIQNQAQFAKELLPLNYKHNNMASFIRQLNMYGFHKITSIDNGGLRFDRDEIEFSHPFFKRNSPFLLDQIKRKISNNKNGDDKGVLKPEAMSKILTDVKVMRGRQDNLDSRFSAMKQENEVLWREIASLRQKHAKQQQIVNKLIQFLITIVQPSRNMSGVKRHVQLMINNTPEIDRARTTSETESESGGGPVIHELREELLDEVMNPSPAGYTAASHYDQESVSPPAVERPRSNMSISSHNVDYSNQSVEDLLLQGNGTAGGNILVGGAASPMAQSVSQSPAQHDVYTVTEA
Briefly: footprint. The following applies: tags: E. coli BL21(DE3) extract; label: 32P 5' end.
Source text: as §1, with “Figure 7A: FIGS. 7A, 7B, and 7C represent the deletion analysis of HSF. (A) Schematic drawing of full-length HSF open reading frame (pHSF WT) and three deletion mutants PHSF 1-367, 1-241, and 1-163. All” for “All”

Sequence of human HSF (HuHSF) (Homo sapiens) (Q00613 whole entry): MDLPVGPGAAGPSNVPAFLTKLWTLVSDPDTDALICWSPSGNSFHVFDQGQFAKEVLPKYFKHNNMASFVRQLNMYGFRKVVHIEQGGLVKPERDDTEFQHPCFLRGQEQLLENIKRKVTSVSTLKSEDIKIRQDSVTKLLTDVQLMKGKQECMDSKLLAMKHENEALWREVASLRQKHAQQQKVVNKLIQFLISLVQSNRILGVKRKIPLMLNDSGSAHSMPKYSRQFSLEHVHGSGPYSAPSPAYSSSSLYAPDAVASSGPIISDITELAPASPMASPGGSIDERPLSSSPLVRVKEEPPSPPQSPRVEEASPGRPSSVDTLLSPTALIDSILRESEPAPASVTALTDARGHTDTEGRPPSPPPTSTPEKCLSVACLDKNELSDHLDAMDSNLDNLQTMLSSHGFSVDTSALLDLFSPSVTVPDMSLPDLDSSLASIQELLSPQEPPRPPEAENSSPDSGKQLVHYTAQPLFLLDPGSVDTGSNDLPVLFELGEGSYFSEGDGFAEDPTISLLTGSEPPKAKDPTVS

Regarding “synthetic HSE with three -GAA- repeats in alternating orientation”, the binding signal (fold increase on heat shock) in data set [1] amounted to 5.
In turn, phsp70(-50)HSE2 template yielded an activity in data set [2] of 7. Further, the activity (fold transcription stimulation) in data set [3] was determined as 6.

B1: recombinant Drosophila heat shock factor (HSF), full-length, expressed in E. coli (pHSFWT) or translated in vitro in rabbit reticulocyte lysate (other)
chain: MSRSRSSAKAVQFKHESEEEEEDEEEQLPSRRMHSYGDAAAIGSGVPAFLAKLWRLVDDADTNRLICWTKDGQSFVIQNQAQFAKELLPLNYKHNNMASFIRQLNMYGFHKITSIDNGGLRFDRDEIEFSHPFFKRNSPFLLDQIKRKISNNKNGDDKGVLKPEAMSKILTDVKVMRGRQDNLDSRFSAMKQENEVLWREIASLRQKHAKQQQIVNKLIQFLITIVQPSRNMSGVKRHVQLMINNTPEIDRARTTSETESESGGGPVIHELREELLDEVMNPSPAGYTAASHYDQESVSPPAVERPRSNMSISSHNVDYSNQSVEDLLLQGNGTAGGNILVGGAASPMAQSVSQSPAQHDVYTVTEAPDSHVQEVPNSPPYYEEQNVLTTPMVREQEQQKRQQLKENNKLRRQAGDVILDAGDILVDSSSPKAQRTSIQHSTQPDVMVQPMIIKSEPENSSGLMDLMTPANDLYSVNFISEDMPTDIFEDALLPDGVEEAAKLDQQQKFGQSTVSSGKFASNFDVPTNSTLLDANQASTSKAAAKAQASEEEGMAVAKYSGAENGNNRDTNNSQLLRMASVDELHGHLESMQDELETLKDLLRGDGVAIDQNMLMGLFNDSDLMDNYGLSFPNDSISSEKKAPSGSELISYQPMYDLSDILDTDDGNNDQEASRRQMQTQSSVLNTPRHEL
As for B1, the binding result in data set [4] is listed as “binds”.

B2: hsp70 promoter (-100 to +10 printed) (dsDNA)
DNA 1: AAACGGCACACTGTTCTCGTTGCTTCGAGAGAGCGCGCCTCGAATGTTCGCGAAAAGAGCGCCGGAGTATAAATAGAGGCGCTTCGTCGACGGAGCGTCAATTCAATTCA
DNA 2: TGAATTGAATTGACGCTCCGTCGACGAAGCGCCTCTATTTATACTCCGGCGCTCTTTTCGCGAACATTCGAGGCGCGCTCTCTCGAAGCAACGAGAACAGTGTGCCGTTT
Turning to B2, the binding signal in data set [5] is 50 fold lower affinity vs full length; in data set [6], ≤ 2 fold difference vs full length; in data set [7] it was ≤ 2 fold difference vs full length.
